Source: patent US7135295

Molecular target: biotinylated DNP-Ab (anti-DNP antibody modified with biotinamidocaproate N-hydroxysuccinimide ester)
Assay: quartz crystal microbalance; avidin injected onto biotinylated DNP-Ab held on the dinitrosalicylic acid antigen monolayer

With avidin (from UniProt P02701 25-152) the crystal frequency change Δf was -120 Hz.
